# Reference: article PMC11417379
# System: pTERF1 (Clostridia bacterium (ruminant gut metagenome))
# Assay: BLI
# Settings: BLI: PBS, 0.02% Tween, pH 7.4, 25 C, 1:1 global fit; EMSA: 40 nM probe, room temperature 30 min, 6% native PAGE, buffer not stated
substance,measurement,value
pTERF1 motif probe,Kd,1.87 nM
